Results from US20060035332.

How the values were obtained:
[1] = biological target: human OT7T022 receptor (human); experiment: competition; conditions: modification not given
[2] = biological target: human OT7T022 receptor (human); experiment: competition, 125I-Tyr-hRFRP-3(8), pH 7.5, room temperature; conditions: modification not given

human OT7T022 receptor (human), sequence (chain, as listed by the source): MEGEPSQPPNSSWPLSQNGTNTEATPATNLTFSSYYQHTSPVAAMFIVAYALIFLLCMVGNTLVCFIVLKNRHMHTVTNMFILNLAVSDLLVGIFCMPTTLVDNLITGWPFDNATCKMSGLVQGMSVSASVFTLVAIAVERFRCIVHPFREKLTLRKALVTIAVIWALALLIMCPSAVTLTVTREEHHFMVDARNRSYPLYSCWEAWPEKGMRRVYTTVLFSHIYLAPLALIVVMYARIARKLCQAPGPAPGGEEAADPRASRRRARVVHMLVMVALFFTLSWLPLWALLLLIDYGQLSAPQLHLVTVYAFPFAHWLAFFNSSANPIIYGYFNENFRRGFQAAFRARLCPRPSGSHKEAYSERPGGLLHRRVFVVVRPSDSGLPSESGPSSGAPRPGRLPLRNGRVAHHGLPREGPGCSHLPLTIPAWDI

Binder | IC50 [1] | IC50 [2]
NLPQRF [hRFRP-3(6)] | 2.6 nM | 
LPQRF [hRFRP-3(5)] |  | 2.1 nM
PNLPQRF [hRFRP-3(7)] | 0.62 nM | 

Continued, values first:

IC50 [1] | IC50 [2] | Binder
 | 1.1 nM | ATANLPLRSGRNMEVSLVRRVPNLPQRF [hRFRP-3(28)]
 | 1.3 nM | SAGATANLPLRSGRNMEVSLVRRVPNLPQRF [hRFRP-3(31)]
